The target in this test is human IgG (human). As to the kind of experiment: BLI Octet, construct on Ni-NTA sensor, hIgG in solution. On the technique in general: In BLI a coated tip is dipped into the sample, and binding shifts an interference pattern.

pKd: −log10 of the molar value.

One may read the pKd as the Kd on a negative log10 scale, so that one unit is a factor of ten. The koff is the rate constant with which the complex falls apart. Higher therefore signals a short-lived complex. A word on the kon: it is a measure of how fast the partners come together. Read a low kon as slower complex formation. As for “HSV2-gE_A246W P317F_gI (from UniProt P89475 21-416; P06764 21-256) (receptor)”, the pKd was over 12.00, the Response (nm) is 0.101 nm, the koff is under 1e-07 s⁻¹ and the kon was found to be 6180 M⁻¹ s⁻¹.
As for “HSV2-gE_A246W P317K_gI (from UniProt P89475 21-416; P06764 21-256) (receptor)”, the pKd is over 12.00, the Response (nm) was 0.071 nm, the koff was under 1e-07 s⁻¹ and the kon was found to be 6090 M⁻¹ s⁻¹.
The substance “HSV2-gE_A246W P317S_gI (from UniProt P89475 21-416; P06764 21-256) (receptor)” gave a pKd of over 12.00, a Response (nm) of 0.121 nm, a koff of under 1e-07 s⁻¹ and a kon of 3600 M⁻¹ s⁻¹.
Taken in the same sequence, the figures for “HSV2-gE_A246W R320D_gI (from UniProt P89475 21-416; P06764 21-256) (receptor)” were over 12.00, 0.0712 nm, under 1e-07 s⁻¹ and 2260 M⁻¹ s⁻¹.
In the case of “HSV2-gE_A248G F322A_gI (from UniProt P89475 21-416; P06764 21-256) (receptor)”, the pKd was 6.57, the Response (nm) was 0.559 nm, the koff came out at 0.00352 s⁻¹ and the kon was found to be 13100 M⁻¹ s⁻¹.
Substance “HSV2-gE_A248G F322I_gI (from UniProt P89475 21-416; P06764 21-256) (receptor)” gave a pKd of 6.33, a Response (nm) of 0.373 nm, a koff of 0.00439 s⁻¹ and a kon of 9450 M⁻¹ s⁻¹.
For “HSV2-gE_A248G F322P_gI (from UniProt P89475 21-416; P06764 21-256) (receptor)”, the pKd was 6.49, the Response (nm) is 0.497 nm, the koff was found to be 0.00367 s⁻¹ and the kon was 11500 M⁻¹ s⁻¹.
Turning to “HSV2-gE_A248G V340M_gI (from UniProt P89475 21-416; P06764 21-256) (receptor)”, the pKd is 6.24, the Response (nm) amounted to 0.452 nm, the koff came out at 0.0052 s⁻¹ and the kon worked out at 9110 M⁻¹ s⁻¹.
As to “HSV2-gE_A248G V340R_gI (from UniProt P89475 21-416; P06764 21-256) (receptor)”, the pKd is 5.05, the Response (nm) is 0.303 nm, the koff was 0.00461 s⁻¹ and the kon stood at 514 M⁻¹ s⁻¹.
On to “HSV2-gE_A248G_gI (from UniProt P89475 21-416; P06764 21-256) (receptor)”, for which the pKd was 6.25, the Response (nm) is 0.506 nm, the koff worked out at 0.00551 s⁻¹ and the kon is 9840 M⁻¹ s⁻¹.
For “HSV2-gE_A248K F322A_gI (from UniProt P89475 21-416; P06764 21-256) (receptor)”, the negative-log Kd (pKd) was 6.39, the Response (nm) is 0.481 nm, the koff was found to be 0.00397 s⁻¹ and the kon was found to be 9720 M⁻¹ s⁻¹.
On to “HSV2-gE_A248K F322I_gI (from UniProt P89475 21-416; P06764 21-256) (receptor)”, for which the pKd is 6.06, the Response (nm) was found to be 0.321 nm, the koff turned out to be 0.00525 s⁻¹ and the kon is 6040 M⁻¹ s⁻¹.
Take “HSV2-gE_A248K F322P_gI (from UniProt P89475 21-416; P06764 21-256) (receptor)”: the pKd is 6.30, the Response (nm) was 0.427 nm, the koff turned out to be 0.00461 s⁻¹ and the kon is 9250 M⁻¹ s⁻¹.
The corresponding values for “HSV2-gE_A248K V340M_gI (from UniProt P89475 21-416; P06764 21-256) (receptor)” are over 12.00, 0.0007 nm, under 1e-07 s⁻¹ and 237 M⁻¹ s⁻¹.
Substance “HSV2-gE_A248K V340R_gI (from UniProt P89475 21-416; P06764 21-256) (receptor)” had a pKd of over 12.00, a Response (nm) of 0.0449 nm, a koff of under 1e-07 s⁻¹ and a kon of 3040 M⁻¹ s⁻¹.
Taken in the same sequence, the figures for “HSV2-gE_A248K_gI (from UniProt P89475 21-416; P06764 21-256) (receptor)” were 6.35, 0.477 nm, 0.00499 s⁻¹ and 11100 M⁻¹ s⁻¹.
Taken in the same sequence, the figures for “HSV2-gE_A248T F322I_gI (from UniProt P89475 21-416; P06764 21-256) (receptor)” were 5.05, 0.184 nm, 0.00486 s⁻¹ and 549 M⁻¹ s⁻¹.
In the case of “HSV2-gE_A248T F322P_gI (from UniProt P89475 21-416; P06764 21-256) (receptor)”, the pKd is 5.83, the Response (nm) is 0.2 nm, the koff amounted to 0.00426 s⁻¹ and the kon came out at 2870 M⁻¹ s⁻¹.
As to “HSV2-gE_A248T V340R_gI (from UniProt P89475 21-416; P06764 21-256) (receptor)”, the pKd is over 12.00, the Response (nm) amounted to 0.183 nm, the off-rate (koff) was under 1e-07 s⁻¹ and the kon was 5000 M⁻¹ s⁻¹.
As for “HSV2-gE_F322A_gI (from UniProt P89475 21-416; P06764 21-256) (receptor)”, the pKd is 6.78, the Response (nm) came to 0.86 nm, the koff stood at 0.00273 s⁻¹ and the kon worked out at 16400 M⁻¹ s⁻¹.
Taken in the same sequence, the figures for “HSV2-gE_F322I_gI (from UniProt P89475 21-416; P06764 21-256) (receptor)” were 6.52, 0.639 nm, 0.00363 s⁻¹ and 12000 M⁻¹ s⁻¹.
Turning to “HSV2-gE_F322K_gI (from UniProt P89475 21-416; P06764 21-256) (receptor)”, the pKd was 6.56, the Response (nm) amounted to 0.599 nm, the koff worked out at 0.00301 s⁻¹ and the kon is 10800 M⁻¹ s⁻¹.
The substance “HSV2-gE_F322N_gI (from UniProt P89475 21-416; P06764 21-256) (receptor)” gave a pKd of 6.62, a Response (nm) of 0.73 nm, a koff of 0.00313 s⁻¹ and a kon of 13100 M⁻¹ s⁻¹.
Taken in the same sequence, the figures for “HSV2-gE_F322P_gI (from UniProt P89475 21-416; P06764 21-256) (receptor)” were 6.80, 0.807 nm, 0.00223 s⁻¹ and 13900 M⁻¹ s⁻¹.
Turning to “HSV2-gE_F322T_gI (from UniProt P89475 21-416; P06764 21-256) (receptor)”, the pKd is 6.75, the Response (nm) amounted to 0.762 nm, the koff turned out to be 0.00269 s⁻¹ and the kon is 15000 M⁻¹ s⁻¹.
Substance “HSV2-gE_H245A P319G_gI (from UniProt P89475 21-416; P06764 21-256) (receptor)” had a pKd of 6.31, a Response (nm) of 0.26 nm, a dissociation rate constant (koff) of 0.00391 s⁻¹ and a kon of 7970 M⁻¹ s⁻¹.
On to “HSV2-gE_H245A P319L_gI (from UniProt P89475 21-416; P06764 21-256) (receptor)”, for which the pKd was 6.35, the Response (nm) was 0.265 nm, the koff was found to be 0.00273 s⁻¹ and the kon was 6080 M⁻¹ s⁻¹.
“HSV2-gE_H245G P319G_gI (from UniProt P89475 21-416; P06764 21-256) (receptor)” gave a pKd of 5.70, a Response (nm) of 0.157 nm, a koff of 0.00357 s⁻¹ and a kon of 1780 M⁻¹ s⁻¹.
As to “HSV2-gE_H245G P319L_gI (from UniProt P89475 21-416; P06764 21-256) (receptor)”, the pKd was 6.49, the Response (nm) was 0.361 nm, the koff is 0.00189 s⁻¹ and the kon was 5760 M⁻¹ s⁻¹.
Substance “HSV2-gE_H245G R320T_gI (from UniProt P89475 21-416; P06764 21-256) (receptor)” showed a pKd of 6.23, a Response (nm) of 0.279 nm, a koff of 0.00319 s⁻¹ and a kon of 5400 M⁻¹ s⁻¹.
Taken in the same sequence, the figures for “HSV2-gE_H245G_gI (from UniProt P89475 21-416; P06764 21-256) (receptor)” were 5.79, 0.424 nm, 0.00669 s⁻¹ and 4110 M⁻¹ s⁻¹.
Take “HSV2-gE_H245I_gI (from UniProt P89475 21-416; P06764 21-256) (receptor)”: the pKd was 6.74, the Response (nm) was determined as 1.02 nm, the koff came out at 0.00301 s⁻¹ and the kon came to 16500 M⁻¹ s⁻¹.
On to “HSV2-gE_H245K_gI (from UniProt P89475 21-416; P06764 21-256) (receptor)”, for which the pKd was 6.16, the Response (nm) worked out at 0.562 nm, the koff is 0.00614 s⁻¹ and the on-rate (kon) worked out at 8960 M⁻¹ s⁻¹.
With “HSV2-gE_H245Q_gI (from UniProt P89475 21-416; P06764 21-256) (receptor)”, the pKd is 6.49, the Response (nm) was determined as 0.896 nm, the koff came to 0.0048 s⁻¹ and the kon came to 15000 M⁻¹ s⁻¹.
As for “HSV2-gE_H245R_gI (from UniProt P89475 21-416; P06764 21-256) (receptor)”, the pKd is 6.58, the Response (nm) is 0.842 nm, the off-rate (koff) was determined as 0.00416 s⁻¹ and the kon stood at 15700 M⁻¹ s⁻¹.
“HSV2-gE_H245S_gI (from UniProt P89475 21-416; P06764 21-256) (receptor)” had a pKd of 6.06, a Response (nm) of 0.46 nm, a koff of 0.00658 s⁻¹ and a kon of 7600 M⁻¹ s⁻¹.
Taken in the same sequence, the figures for “HSV2-gE_H245T_gI (from UniProt P89475 21-416; P06764 21-256) (receptor)” were 6.09, 0.493 nm, 0.00605 s⁻¹ and 7450 M⁻¹ s⁻¹.
“HSV2-gE_H245V_gI (from UniProt P89475 21-416; P06764 21-256) (receptor)”: the pKd is 6.31, the Response (nm) came to 0.745 nm, the off-rate (koff) was determined as 0.00573 s⁻¹ and the kon turned out to be 11800 M⁻¹ s⁻¹.

The values above are taken from US20220273789A1.
